Test results published in the DeepSol protein solubility set.

Assay: soluble on expression in E. coli; label from the status in PepcDB or PDB records

Sequence: GAEPKGLLRVDLPVSLGRMVVIPALPEFTRRYPQVRLEIGMSDRPVDLIREGVDCVLRAGAALDEALVARPLGSLTQITCASREYLQQHGTPLQLEDLAHHQVIEYFSASTSKRYGLEFVGEGGAPDHGLACSISVNSADGY
- soluble on expression in E. coli: not soluble

Sequence: GSMIRSTLSSWREYLTPITHKSTFLTTGQITPEEFVQAGDYLCHMFPTWKWNEESSDISYRDFLPKNKQFLIIRKVPCDKRAEQCVEVEGPDVIMKGFAEDGDEDDVLEYIGSETEHVQSTPAGGTKDSSIDDIDELIQDMEIKEEDENDDTEEFNAKGGLAKDMAQERYYDLYIAYSTSYRVPKMYIVGFNSNGSPLSPEQMFEDISADYRTKTATIEKLPFYKNSVLSVSIHPCKHANVMKILLDKVRVVRQRRRKELQEEQELDGVGDWEDLQDDIDDSLRVDQYLIVFLKFITSVTPSIQHDYTMEGW
- soluble on expression in E. coli: soluble

Sequence: MSLYKIITSDLDETLLRQDGSISSANVAAIAAASKRGVKFVPNTGRSFLSIQPLLKTLNLYQRPNEYVVSYNGGVVVENQDNRVIVSNEMPYEEAAKAFAIMSEFDVDIHIYTLDHLFIYRPRADDRAYLQTRGVTFTEMTGAFDQFRNAQIMKVIVMNPDVMVRQQVYAAIKAAFTEINCTYSSGIYMEVNHAGVDKGRAILDLGDKLGIKADEIMAIGDNANDLGMLTKVGLPVSVANGIDDVKQVAKFVTPHDYERGVADAIETFILEGHHHHHH
- soluble on expression in E. coli: soluble

Sequence: MILGPDGKPIKKPETSEIARVLHTFSAFMKSLPNPDIILKKTGKTAEIFEEMKTDAHVWAELTKRKSGVLSKDWDILPASNDRRDLEIAAFVKETFERLNFDQDMRTKTCGKCSMPCSRAGTCTN
- soluble on expression in E. coli: not soluble

Sequence: MADPDSYRSSITSRPAFNRTVTSSTQNYGTPASGNRVLKIVTETHTSSVASGLSPYGQGAASTIRDDREREKKEITELNDRLASYIGKVRFLAAQNRKLEADLNVLQSRFGKSTGSVKIMYEMEITTATNVVKETGKDHEEAEKEIGKIKDQLDELRKKFEEAQKGRAEDRLKIDELLVTLSNLEAEINLLKRRIALLEEEVARLKKENFRLTSELQRVRSELDQETLLRIDNQNKVTTILEEIDFMKRGFETELKDLQAQAARDTTSENREYFKNELMNSIRDIRAEYDRFMAGNRNDLESWSQIRVQEINTQTNRQNAEINHKRDEVKRLHSQVSELKSKHAELAARNGLLEKQLEDLNYQLEDDQRSYEAALNDKDAQVRKLREECQALLVELQMLLDTKQTLDGELKVYRRMLEGNSEENGLRQLVEKVVRTSAINEEVDTETMRVVKGEHSSRTSYQRSAKGNVSIKEVSPEGKFVILENTHRDKEEPLGDWKLKRKIDGKREIVFTFPSDYILHPVQTVKIFARGNGVANPPEVLVFEGDDTFGAGANVQTILYNNSGEERATHMQRQSQQTTTS
- soluble on expression in E. coli: not soluble

Sequence: MMQSGYRAPISRKSVVNTTPATPARTDRRTVSMAQQLLMPKATAVWLVDNTALSFDQIATFCKLHPLEVKAIADGEAAQGIKGLDPIATGQLSRDEIARAEGNPSHKLKLSEPKVRVPESKRRGPRYTPVSKRQDRPNAILWLVRNHPELKDAQISRLVGTTKSTIEQIRDRTHWNSANLTPMDPVTLGLCSQIDLDLEVERASRGRPLPTAEELGNTLQPATATEGLDYNNYQREEEQQIDADAVFKKLSSLKSAPKDEDEDDQYLEHHHHHH
- soluble on expression in E. coli: soluble

Sequence: MSSQSSSADGKVTLKFFHRWPKEPEKSYFEEVVKEFEKDHPDIDIQIEAVLNDSYKDKIKVMLGTTSPPDIYFSWSDEFAFKFIRGNKALDLSSYYKNDTDWSSQLVQSQITPFTYENKQYGVPWQMDAKSFFYNKDIFQKLNLDPPKTWDELIDVSKKLKEHGYTPISFGTKATWTISHYIGTLNQRMVDEKTREKDYNAKTGEFTDEGYVKALEKLQELMPYFNKHVNSVDHEYVRQQFKSGKSAMIYAETAEIKLVEPVNLGMFPFPEISGQKGSSEALTGAPEGFMISSRTKHPKEAMEFLQFLTSKRMGEKLVKDVGKYSAVQGTATEENATAIQREAVQHIVDAKSMVPWFDMDVDVEVADAYLTGVQQMLGGDMTPQQVMKAVQKAAKQVRASAELEHHHHHH
- soluble on expression in E. coli: soluble

Sequence: SPTVEACGYSDRIIQITRGDSTITSQDVANAIVAYGVWPHYLSSKDASAIDKPSQPDTSSNRFYTLRSVTWSSSSKGWWWKLPDALKDMGIFGENMFYHYLGRSGYTIHVQCNASKFHQGTLIVALIPEHQIASALHGNVNVGYNYTHPGETGREVKAETRLNPDLQPTEEYWLNFDGTLLGNITIFPHQFINLRSNNSATIIAPYVNAVPMDSMRSHNNWSLVIIPICPLETSSAINTIPITISISPMCAEFSGARAKRQ
- soluble on expression in E. coli: soluble
